Experimental data taken from the supplement of paper PMC12067230.
± gives the uncertainty stated by the source.

B1: F-6-G; numbered along this chain (parent)
chain: EASNCFAIRHFENKFAVETLICFNLFLNSQEKHY

Variants of: B1
Assay: amyloid nucleation score relative to WT ADan (yeast Sup35 reporter selection) (log enrichment difference); higher = more amyloid nucleation
Procedure: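 Deep mutational scan of the ADan peptide fused to the Sup35 nucleation domain (SupN) in S. cerevisiae [psi-pin-], covering all single amino-acid substitutions and stop truncations (truncations = sequence up to the stop). After 24 h Cu2+ induction, cells were selected on -ADE-URA plates for 7 d at 30 °C. The nucleation score is log enrichment (output/input, deep sequencing) minus that of WT ADan, as the error-weighted mean of 3 biological replicates (DiMSum).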

Amyloid nucleation score of substitutions, site by site:
F6: G 0.176 ± 0.11 | H 0.563 ± 0.19 | S 0.477 ± 0.11 | I -0.609 ± 0.19 | Y 0.351 ± 0.14 | V -0.127 ± 0.1 | E 0.683 ± 0.15 | P 0.53 ± 0.16 | Q 0.362 ± 0.17 | K 0.8 ± 0.17 | L -0.5 ± 0.11 | R 0.678 ± 0.1 | A 0.0803 ± 0.13 | W 0.168 ± 0.16 | D 0.634 ± 0.16 | M -0.0809 ± 0.15 | C 0.408 ± 0.14 | N 0.646 ± 0.28
A16: V -0.233 ± 0.1 | P -1.2 ± 0.21 | F 0.651 ± 0.16 | S 0.414 ± 0.1 | H 0.76 ± 0.31 | Q 0.708 ± 0.17 | W -0.102 ± 0.13 | Y 0.572 ± 0.16 | K 0.514 ± 0.17 | M -0.212 ± 0.15 | D 0.736 ± 0.15 | L -0.774 ± 0.099 | I -0.647 ± 0.19 | N 0.755 ± 0.16 | E 1.02 ± 0.13 | T 0.448 ± 0.14 | G 0.407 ± 0.091 | C 0.159 ± 0.14 | R 0.372 ± 0.1
N13: I -0.0116 ± 0.13 | K -0.309 ± 0.14 | E -0.506 ± 0.14 | F -0.221 ± 0.11 | Y -1.67 ± 0.15 | C -0.187 ± 0.12 | V 0.195 ± 0.09 | T -0.39 ± 0.11 | M -0.696 ± 0.13 | P -0.534 ± 0.15 | L -0.652 ± 0.086 | Q 0.539 ± 0.16 | S -0.991 ± 0.09 | W -0.378 ± 0.12 | A -0.453 ± 0.12 | D 0.0178 ± 0.13 | G 1.19 ± 0.082 | R -1.97 ± 0.1 | H -1.45 ± 0.23
F11: H -0.0333 ± 0.17 | S -0.135 ± 0.099 | T 0.236 ± 0.13 | P 0.683 ± 0.19 | W -0.14 ± 0.13 | A 0.14 ± 0.13 | C 0.247 ± 0.15 | D -0.0408 ± 0.15 | E 0.0736 ± 0.14 | M 0.968 ± 0.15 | R 0.366 ± 0.095 | G 0.144 ± 0.091 | Q 0.646 ± 0.18 | V 0.671 ± 0.087 | K 0.435 ± 0.17 | L 0.0755 ± 0.086 | I 0.216 ± 0.14 | Y 0.379 ± 0.14 | N -0.169 ± 0.18
K14: T 0.665 ± 0.1 | L 0.488 ± 0.073 | E 0.00624 ± 0.12 | V 0.207 ± 0.08 | R -0.195 ± 0.084 | H 1.04 ± 0.14 | M 0.629 ± 0.11 | Q 0.601 ± 0.13 | F 0.137 ± 0.11 | G -0.903 ± 0.091 | N 0.701 ± 0.12 | Y 0.185 ± 0.11 | D 0.152 ± 0.13 | S 0.341 ± 0.075 | P 0.000567 ± 0.15 | I 0.391 ± 0.12 | A 0.253 ± 0.096 | W 0.0928 ± 0.12 | C 0.65 ± 0.11
C5: Q 0.396 ± 0.27 | E 0.484 ± 0.21 | A 0.274 ± 0.14 | D 0.699 ± 0.18 | T -0.0743 ± 0.15 | L -0.0462 ± 0.12 | F 0.0304 ± 0.15 | W -1.36 ± 0.21 | Y -0.00901 ± 0.15 | K -0.223 ± 0.21 | I -0.166 ± 0.15 | R 0.0293 ± 0.12 | P 0.685 ± 0.19 | G 0.214 ± 0.11 | S 0.0127 ± 0.12 | H 0.0549 ± 0.26 | V -0.199 ± 0.12 | N 0.0664 ± 0.2 | M 0.796 ± 0.19
H10: E 0.551 ± 0.18 | A 0.402 ± 0.14 | Q 0.00592 ± 0.19 | M -0.511 ± 0.18 | W -0.926 ± 0.16 | D 0.76 ± 0.16 | S -0.245 ± 0.1 | R 0.227 ± 0.1 | T 0.0221 ± 0.14 | C 0.429 ± 0.15 | I 0.111 ± 0.16 | Y -0.291 ± 0.15 | K 0.566 ± 0.18 | L -0.281 ± 0.1 | P 0.798 ± 0.18 | F -0.478 ± 0.15 | G 0.122 ± 0.1 | N -0.16 ± 0.17 | V 0.0906 ± 0.11
F15: P 0.782 ± 0.18 | M 0.405 ± 0.14 | D -2.5 ± 0.25 | S -0.453 ± 0.099 | E -2.18 ± 0.19 | C -0.147 ± 0.14 | K -1.37 ± 0.17 | H -2.51 ± 0.26 | N -0.337 ± 0.14 | T -0.00209 ± 0.12 | G 0.818 ± 0.089 | V 0.0927 ± 0.095 | R -2.18 ± 0.14 | I 0.203 ± 0.13 | W -1.15 ± 0.19 | L -0.25 ± 0.085 | A 0.534 ± 0.14 | Y 0.0276 ± 0.12 | Q -0.502 ± 0.18
N4: Y -2.45 ± 0.28 | A -3.1 ± 0.4 | W -3.34 ± 0.39 | T -2.19 ± 0.26 | C -2.58 ± 0.3 | F -4.13 ± 0.42 | G -2.24 ± 0.15 | H -0.547 ± 0.26 | Q -0.267 ± 0.22 | I -3.04 ± 0.28 | V -4.24 ± 0.49 | D 0.376 ± 0.17 | S -0.879 ± 0.12 | M -4.92 ± 0.93 | K 0.0897 ± 0.19 | L -4.8 ± 0.57 | P -0.352 ± 0.18 | E 0.296 ± 0.18 | R -0.0776 ± 0.12
A7: P 0.577 ± 0.12 | W -0.43 ± 0.15 | K 0.0182 ± 0.15 | V 0.125 ± 0.1 | H 0.394 ± 0.15 | D -0.2 ± 0.14 | G 0.45 ± 0.082 | L -1.17 ± 0.099 | M -0.0811 ± 0.16 | Q 0.436 ± 0.18 | Y 0.529 ± 0.13 | R 0.12 ± 0.086 | F 0.173 ± 0.13 | E 0.0742 ± 0.14 | S 0.0708 ± 0.089 | C 0.601 ± 0.12 | T -0.0425 ± 0.13 | I -0.415 ± 0.14 | N 0.744 ± 0.13
E12: Q -0.321 ± 0.18 | A -0.733 ± 0.12 | Y -0.651 ± 0.15 | F -2.21 ± 0.2 | N -0.269 ± 0.14 | V -2.02 ± 0.12 | C -0.751 ± 0.14 | I -3.73 ± 0.52 | G -0.627 ± 0.087 | H 0.13 ± 0.16 | T -0.329 ± 0.15 | M -1.67 ± 0.21 | D 0.334 ± 0.13 | S -0.259 ± 0.092 | R -0.892 ± 0.097 | L -2.5 ± 0.15 | K -0.108 ± 0.15 | P 0.357 ± 0.16 | W -2.66 ± 0.22
A2: K -0.117 ± 0.23 | G 0.0812 ± 0.13 | S 0.208 ± 0.12 | H 0.353 ± 0.26 | T -0.12 ± 0.14 | V -1.22 ± 0.19 | D 0.518 ± 0.22 | E 0.464 ± 0.2 | R -0.078 ± 0.14 | I -1.13 ± 0.23 | W -0.655 ± 0.21 | P 0.0538 ± 0.21 | Y -0.52 ± 0.22 | F -1.28 ± 0.2 | C 0.581 ± 0.19 | L -1.51 ± 0.2 | M -1.1 ± 0.24 | N 0.137 ± 0.21 | Q 0.125 ± 0.26
E1: T -1.09 ± 0.24 | P 0.117 ± 0.38 | Q -0.0134 ± 0.25 | G 0.0173 ± 0.14 | W 0.00448 ± 0.2 | K -1.2 ± 0.24 | H -0.752 ± 0.34 | M -0.555 ± 0.27 | I -1.07 ± 0.3 | C 0.179 ± 0.21 | N 0.0879 ± 0.31 | V 0.419 ± 0.15 | A 0.401 ± 0.18 | Y 0.135 ± 0.22 | D -0.0528 ± 0.21 | R -1.76 ± 0.21 | L -1.03 ± 0.17 | F -1.27 ± 0.26 | S -0.005 ± 0.23
S3: H -0.359 ± 0.39 | Y 0.296 ± 0.25 | L -0.738 ± 0.16 | D 0.481 ± 0.22 | N 0.0448 ± 0.23 | G 0.112 ± 0.14 | M 0.163 ± 0.25 | F -0.00261 ± 0.19 | W -0.398 ± 0.25 | K 0.21 ± 0.27 | T -0.349 ± 0.21 | R -0.46 ± 0.17 | E 0.224 ± 0.23 | Q -0.501 ± 0.37 | P 0.338 ± 0.36 | V -0.392 ± 0.16 | A 0.258 ± 0.18 | C 0.601 ± 0.2 | I -1.1 ± 0.23
V17: Q -1.12 ± 0.23 | N -0.235 ± 0.19 | R 0.126 ± 0.11 | C 0.711 ± 0.14 | S 0.586 ± 0.096 | E -1.74 ± 0.18 | K 0.416 ± 0.18 | I 0.523 ± 0.2 | H -1.16 ± 0.56 | F -0.0103 ± 0.15 | D -0.492 ± 0.18 | G 0.953 ± 0.098 | T -0.513 ± 0.17 | A 0.689 ± 0.12 | Y -2.81 ± 0.43 | M -1.07 ± 0.17 | W -0.301 ± 0.14 | L -0.705 ± 0.1 | P 0.114 ± 0.3
E18: G 0.127 ± 0.1 | H -0.855 ± 0.27 | I -3.49 ± 0.49 | P 0.645 ± 0.28 | D 0.406 ± 0.15 | N 0.236 ± 0.18 | F -2.56 ± 0.22 | M -3.07 ± 0.39 | L -2.63 ± 0.27 | K 0.239 ± 0.16 | C -1.06 ± 0.17 | Q -0.141 ± 0.22 | A -0.809 ± 0.17
R9: S 0.143 ± 0.12 | T 0.386 ± 0.17 | N 0.528 ± 0.27 | H -0.0444 ± 0.26 | Q 0.474 ± 0.17 | F -0.221 ± 0.19 | L -0.614 ± 0.12 | M 0.735 ± 0.17 | C 0.0357 ± 0.14 | W -0.819 ± 0.14 | I -0.484 ± 0.22 | A 0.274 ± 0.14 | Y 0.0138 ± 0.19 | K -0.189 ± 0.19 | G 0.614 ± 0.11 | D 0.286 ± 0.17 | V -0.535 ± 0.12 | E -0.741 ± 0.17
I8: N 0.497 ± 0.15 | W 0.464 ± 0.14 | G 0.834 ± 0.11 | H 0.873 ± 0.21 | R 0.781 ± 0.11 | Q 0.519 ± 0.23 | A 0.49 ± 0.13 | M 0.354 ± 0.15 | K 0.701 ± 0.17 | V 0.0841 ± 0.1 | S 0.471 ± 0.09 | T 0.634 ± 0.14 | L 0.288 ± 0.099 | Y 0.183 ± 0.14 | D 0.678 ± 0.15 | P 0.188 ± 0.15 | F 0.15 ± 0.14 | C 0.524 ± 0.14 | E 0.604 ± 0.17
